From patent CN115368455A

Biological target: SIRPg (UniProt Q9P1W8)
Experiment: SPR (BIAcore X-100); ratio of the affinity for SIRPa to that for SIRPg

Chain of UniProt Q9P1W8 (Q9P1W8 29-360 limits assumed): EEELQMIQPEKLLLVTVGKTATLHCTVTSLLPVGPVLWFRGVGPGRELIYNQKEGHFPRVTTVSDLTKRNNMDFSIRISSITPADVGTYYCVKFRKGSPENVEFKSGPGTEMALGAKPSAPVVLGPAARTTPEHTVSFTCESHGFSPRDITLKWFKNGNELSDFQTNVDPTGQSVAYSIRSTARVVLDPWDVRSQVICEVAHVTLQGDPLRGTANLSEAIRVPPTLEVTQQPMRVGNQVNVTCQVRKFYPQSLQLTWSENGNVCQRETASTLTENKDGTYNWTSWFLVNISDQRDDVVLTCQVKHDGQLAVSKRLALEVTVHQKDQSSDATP

SIRPa/SIRPg亲和力比值: < 1
B1: KWAR23 (antibody, from another filing, V domains shown)
VH: EVQLQQSGAELVKPGASVKLSCTASGFNIKDYYIHWVQQRTEQGLEWIGRIDPEDGETKYAPKFQDKATITADTSSNTAYLHLSSLTSEDTAVYYCARWGAYWGQGTLVTVSS
VL: QIVLTQSPAIMSASPGEKVTLTCSASSSVSSSYLYWYQQKPGSSPKLWIYSTSNLASGVPARFSGSGSGTSYSLTISSMEAEDAASYFCHQWSSYPRTFGAGTKLELK
